Data published in patent US20210032308A1 (published 2021).

Columns and labels:
[1] = molecular target: ML1d1-Pfe; assay: SPR
[2] = molecular target: ML3d1-Pfe; assay: SPR

Kd [1]: 82 nM
Kd [2]: 52 nM
B1: CD2 (receptor)
chain: KEITNALETWGALGQDINLDIPSFQMSDDIDDIKWEKTSDKKKIAQFRKEKETFKEKDTYKLFKNGTLKIKHLKTDDQDIYKVSIYDTKGKNVLEKIFDLKIQERVSKPKISWTCINTTLTCEVMNGTDPELNLYQDGKHLKLSQRVITHKWTTSLSAKFKCTAGNKVSKESSVEPVSCPEKGLD
modifications: biotinylated (site not stated)
